Our source for the Kd and fold increase in KD against WT nsp1 values is publication PMC8481097.

Holding throughout (assay): fluorescence polarisation
A general note: In fluorescence polarisation assays a small probe gives low polarisation when free and higher when bound to something large.

Experiment [1] concerns the target TAMRA-labeled SARS-CoV-2 nsp1 C-K (wild type) (SARS-CoV-2) (UniProt P0DTD1).
For experiment [2], the target named is TAMRA-labeled SARS-CoV-2 nsp1 R124A/K125A (SARS-CoV-2) (UniProt P0DTD1).
Experiment [3] concerns the target TAMRA-labeled SARS-CoV-2 nsp1 R99A (SARS-CoV-2) (UniProt P0DTD1).

One may read the Kd as the concentration at which binding is half-saturated. “purified ribosomes (crude 80S from HeLa cell lysate) (complex)” had a Kd in experiment [1] of 29.4 nM. For the same substance, the values for the fold increase in KD against WT nsp1 in experiment [2] and in experiment [3] were 2.2 fold and 1.8 fold, respectively.
